Biological target: T1, human MASP-3 (human)
T1 construct: also called MASP-3 antigen
T1 chain: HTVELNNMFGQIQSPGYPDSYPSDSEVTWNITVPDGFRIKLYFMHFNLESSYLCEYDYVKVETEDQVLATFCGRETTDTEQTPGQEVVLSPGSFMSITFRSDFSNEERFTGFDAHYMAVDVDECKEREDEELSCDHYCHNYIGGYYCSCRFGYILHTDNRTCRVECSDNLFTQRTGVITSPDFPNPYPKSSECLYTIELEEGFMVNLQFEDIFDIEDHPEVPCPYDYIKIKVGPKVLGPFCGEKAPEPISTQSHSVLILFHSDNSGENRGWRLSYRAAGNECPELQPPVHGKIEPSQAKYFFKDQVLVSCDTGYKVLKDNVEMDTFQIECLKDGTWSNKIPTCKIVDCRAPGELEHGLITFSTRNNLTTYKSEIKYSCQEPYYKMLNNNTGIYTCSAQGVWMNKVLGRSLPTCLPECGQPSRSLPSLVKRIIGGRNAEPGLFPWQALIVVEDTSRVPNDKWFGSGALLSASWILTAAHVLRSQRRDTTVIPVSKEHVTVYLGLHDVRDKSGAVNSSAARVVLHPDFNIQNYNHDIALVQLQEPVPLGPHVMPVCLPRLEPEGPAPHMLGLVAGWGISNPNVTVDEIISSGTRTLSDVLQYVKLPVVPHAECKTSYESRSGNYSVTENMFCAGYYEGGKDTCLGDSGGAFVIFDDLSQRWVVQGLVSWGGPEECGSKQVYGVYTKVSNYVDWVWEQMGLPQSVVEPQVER
Test: saturation binding, DTLacO cells stained with fluorescent-labeled soluble antigen
Excerpt: Recombinant antibodies were generated by cloning PCR-amplified V regions into a vector that supported expression of human IgG1 in 293F cells (Yabuki et al., PLoS ONE, 7(4):e36032 (2012)).

B1: MASP-3 specific clone M3J5 (antibody, IgM, V domains shown)
VH: AVTLDESGGGLQTPGGGLSLVCKASGFTFSSYAMGWMRQAPGKGLEYVAGIRSDGSFTLYATAVKGRATISRDNGQSTVRLQLNNLRAEDTATYFCTRSGNVGDIDAWGHGTEVIVSS
VL: ALTQPASVSANPGETVKITCSGGYSGYAGSYYYGWYQQKAPGSAPVTLIYYNNKRPSDIPSRFSGSLSGSTNTLTITGVRADDEAVYFCGSADNSGAAFGAGTTLTVL
notes: Chicken V regions; also called Clone 5; DTLacO clone M3J5
With B1 the Kd was ~31 nM.

— patent US20130273053A1 (UNIVERSITY OF LEICESTER, published 2013)
